Test results taken from PMC4970670, “Mek1 Down Regulates Rad51 Activity during Yeast Meiosis by Phosphorylation of Hed1” (PLoS Genetics, 2016).

T1: Rad51 (S. cerevisiae, UniProt P25454 1-400)
T1 construct: Rad51 recombinase of S. cerevisiae; Used as 0.6 ug of protein in the pull-down
T1 sequence (looked up): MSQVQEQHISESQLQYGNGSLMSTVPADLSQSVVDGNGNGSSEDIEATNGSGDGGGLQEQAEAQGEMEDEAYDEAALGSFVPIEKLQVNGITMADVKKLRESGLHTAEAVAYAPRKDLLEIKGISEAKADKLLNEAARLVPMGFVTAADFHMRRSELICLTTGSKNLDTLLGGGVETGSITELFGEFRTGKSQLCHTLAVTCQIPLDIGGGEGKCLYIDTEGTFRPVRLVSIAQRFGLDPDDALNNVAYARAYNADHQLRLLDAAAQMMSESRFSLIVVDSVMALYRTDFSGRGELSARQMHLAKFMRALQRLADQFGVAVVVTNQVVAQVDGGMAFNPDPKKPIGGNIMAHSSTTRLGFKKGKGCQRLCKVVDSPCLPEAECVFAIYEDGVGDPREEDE


Molecular target: T1, Rad51
Assay: pull-down; GST-Hed1 WT or 3A (0.6 ug) incubated with Rad51 (0.6 ug), affinity pull-down with Glutathione Sepharose beads; supernatant, wash and SDS-eluate analysed by SDS-PAGE and Coomassie staining
Conditions: both partners purified

| binding result | Binder |
| --- | --- |
| binds | GST-Hed1 (natural protein, S. cerevisiae, UniProt Q03937 1-162, looked up, Hed1, meiosis-specific protein of S. cerevisiae; also called GST-Hed1 WT; recombinant GST-Hed1; source: E. coli, purified) MQQRSNRRSCSYIPLGVHNNAEKSLCTEVAPARKNKRSITTSPIVNINVVERRLFNLELEKQQLRAKNLSENTGGGSPNGGAYLDAKKGVREQDQYQGGPSKELDRLQPPPSMKKSPPRKKKSLKDLIYETNKTFYQVDSNKVKYKVGLSKKQLLPSKTVDN |
| binds | GST-Hed1-3A (natural protein, S. cerevisiae, UniProt Q03937 1-162, looked up, Hed1, meiosis-specific protein of S. cerevisiae, with T40, T41 and S42 all substituted with alanine; source: E. coli, purified) MQQRSNRRSCSYIPLGVHNNAEKSLCTEVAPARKNKRSIAAAPIVNINVVERRLFNLELEKQQLRAKNLSENTGGGSPNGGAYLDAKKGVREQDQYQGGPSKELDRLQPPPSMKKSPPRKKKSLKDLIYETNKTFYQVDSNKVKYKVGLSKKQLLPSKTVDN |
